Data as given in patent US5807698.

Target: human p33 CDK2 (human) (UniProt P24941)

Sequence of human cyclin E (P24864 16-410 limits assumed): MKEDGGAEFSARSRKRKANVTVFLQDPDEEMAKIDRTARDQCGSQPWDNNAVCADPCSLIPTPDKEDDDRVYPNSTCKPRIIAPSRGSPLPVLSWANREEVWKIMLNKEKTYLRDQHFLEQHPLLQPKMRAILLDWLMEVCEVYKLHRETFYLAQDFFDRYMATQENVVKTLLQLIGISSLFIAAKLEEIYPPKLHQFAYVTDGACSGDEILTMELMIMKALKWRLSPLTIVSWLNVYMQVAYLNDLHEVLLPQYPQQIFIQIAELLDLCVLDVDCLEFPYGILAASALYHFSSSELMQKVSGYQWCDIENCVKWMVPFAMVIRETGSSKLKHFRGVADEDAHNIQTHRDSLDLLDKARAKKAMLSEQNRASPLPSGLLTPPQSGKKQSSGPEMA

- CDK2 histone H1 kinase activity in G1 cell extract: 22 fold
Substance: human cyclin E
